Measurements from patent publication US20170174733A1 (Genentech, published 2017).

Key:
[1] = molecular target: anti-gD antibody (Genentech, Inc.); test: phage ELISA on coated anti-gD antibody, 2-fold phage dilutions, anti-M13-HRP detection, OD 450 nm
[2] = molecular target: T1, papain (UniProt P00784 134-345); test: phage ELISA on coated papain, 2-fold phage dilutions, anti-M13-HRP detection, OD 450 nm
T1 construct: Coated on ELISA plates
T1 sequence: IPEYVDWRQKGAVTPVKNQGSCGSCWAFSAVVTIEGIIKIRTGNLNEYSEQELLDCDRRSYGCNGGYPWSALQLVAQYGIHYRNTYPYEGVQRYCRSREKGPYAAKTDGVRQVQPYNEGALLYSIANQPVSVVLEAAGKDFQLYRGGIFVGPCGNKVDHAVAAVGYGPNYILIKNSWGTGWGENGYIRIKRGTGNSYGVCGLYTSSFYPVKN

[3] = molecular target: BSA (UniProt P02769 25-607); test: phage ELISA on BSA as control, 2-fold phage dilutions, anti-M13-HRP detection, OD 450 nm
Sequence of BSA (P02769 25-607 limits assumed): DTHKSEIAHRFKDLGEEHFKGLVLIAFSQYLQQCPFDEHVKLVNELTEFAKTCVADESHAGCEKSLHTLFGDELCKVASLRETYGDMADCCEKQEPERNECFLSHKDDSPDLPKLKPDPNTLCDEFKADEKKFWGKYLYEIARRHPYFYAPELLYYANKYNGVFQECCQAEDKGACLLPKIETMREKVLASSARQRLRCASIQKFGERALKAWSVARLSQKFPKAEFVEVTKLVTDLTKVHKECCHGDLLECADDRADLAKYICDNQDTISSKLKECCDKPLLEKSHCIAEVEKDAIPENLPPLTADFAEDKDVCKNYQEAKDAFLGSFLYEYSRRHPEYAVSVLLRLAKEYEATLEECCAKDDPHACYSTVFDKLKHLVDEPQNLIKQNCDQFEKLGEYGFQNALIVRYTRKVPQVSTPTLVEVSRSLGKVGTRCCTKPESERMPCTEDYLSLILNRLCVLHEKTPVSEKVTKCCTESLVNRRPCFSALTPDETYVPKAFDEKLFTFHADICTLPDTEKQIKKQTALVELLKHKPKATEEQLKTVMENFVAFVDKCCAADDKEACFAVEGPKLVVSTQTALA

[4] = molecular target: T2, LRP6 E1E2 with a C-terminal Avi-tag and His6-tag (human, UniProt O75581 20-630, biotinylated (Avi-tag) where loaded on streptavidin tips; unlabeled where in solution); test: BLI (OctetRED384): Strep-tagged variant captured by StrepMAB-Immo on AMC tips, LRP6-E1E2 in solution
T2 construct: domain: E1E2; also called LRP6 receptor fragment E1E2; biotinylated LRP6-E1E2; not shown: C-terminal Avi-tag and His6-tag
T2 sequence: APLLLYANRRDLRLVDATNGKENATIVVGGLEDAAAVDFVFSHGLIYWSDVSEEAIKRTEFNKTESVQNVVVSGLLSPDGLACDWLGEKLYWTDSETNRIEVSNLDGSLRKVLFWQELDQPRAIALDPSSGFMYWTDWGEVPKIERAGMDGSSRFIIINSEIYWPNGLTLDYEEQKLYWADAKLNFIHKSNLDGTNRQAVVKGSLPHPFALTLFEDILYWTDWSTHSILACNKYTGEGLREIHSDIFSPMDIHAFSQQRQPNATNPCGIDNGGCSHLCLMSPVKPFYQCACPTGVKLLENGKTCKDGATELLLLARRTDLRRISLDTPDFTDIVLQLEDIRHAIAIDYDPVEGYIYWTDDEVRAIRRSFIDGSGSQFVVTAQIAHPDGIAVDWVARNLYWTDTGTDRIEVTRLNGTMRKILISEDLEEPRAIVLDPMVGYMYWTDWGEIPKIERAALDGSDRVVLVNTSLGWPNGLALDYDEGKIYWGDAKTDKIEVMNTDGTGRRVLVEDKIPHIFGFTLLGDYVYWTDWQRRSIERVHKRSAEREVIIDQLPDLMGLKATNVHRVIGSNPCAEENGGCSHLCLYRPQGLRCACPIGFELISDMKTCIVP

[5] = molecular target: LRP6 on HEK293S cells (human, UniProt O75581 20-1613); test: cell-based or functional assay
[6] = molecular target: T2, LRP6 E1E2 with a C-terminal Avi-tag and …; test: BLI (OctetRED384), monomeric variant
[7] = molecular target: T3, VEGF109 (UniProt P15692 214-315, biotinylated where loaded on streptavidin tips); test: BLI (Octet) on VEGF109
T3 construct: range 8-109; also called VEGF8-109; biotinylated VEGF109
T3 sequence: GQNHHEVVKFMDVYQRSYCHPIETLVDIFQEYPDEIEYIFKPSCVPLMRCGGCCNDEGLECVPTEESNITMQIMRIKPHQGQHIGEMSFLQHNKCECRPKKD
Experimental: Binding affinities of chagasin variants for the targets LRP6 and VEGF109 were measured using the OctetRED384 (ForteBio). All washes, dilutions and measurements were performed in PBS-based kinetics buffer (ForteBio) with the plate shaking at 1000 rpm. Streptavidin biosensors (SA tips, ForteBio) were equilibrated in kinetics buffer for 5 min and then loaded with either biotinylated LRP6-E1E2 or biotinylated VEGF109 (20 μg/ml) to a density of 2 nm signal difference, followed by a 3 min washing step. […] Dissociation of the chagasin variant-target complex was measured in wells containing kinetics buffer alone for up to 30 min. Sensorgrams with ligand-loaded SA tips going through wells containing only buffer in both association and dissociation measurement were used as reference for background subtraction. Kd, kₐ and kd were determined using the Octet evaluation software v7.0.1.3. using a 1:1 binding model with global fitting. Alternatively, AMC-biosensors (Fortebio) were loaded with StrepMAB-Immo (IBA GmbH) to saturation and subsequently used to capture Strep-tag II containing chagasin variants to saturation. After 5 min of washing in kinetics buffer, binding kinetics to unlabeled LRP6-E1E2 fragment was determined essentially as described above.

[8] = molecular target: T3, VEGF109; test: phage ELISA, 5 ug/ml VEGF coated on 384-well Maxisorp, OD 450 nm
[9] = molecular target: T4, human VEGF (human, UniProt P15692 27-191); test: cell-based or functional assay
T4 sequence (P15692 other isoform, or with tags, fused parts or gaps limits assumed): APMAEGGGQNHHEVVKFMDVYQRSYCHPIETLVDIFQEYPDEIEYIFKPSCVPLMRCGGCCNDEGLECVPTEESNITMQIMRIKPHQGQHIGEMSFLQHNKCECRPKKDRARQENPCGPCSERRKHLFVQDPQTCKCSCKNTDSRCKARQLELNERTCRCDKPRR

[10] = molecular target: T3, VEGF109; test: phage spot ELISA on VEGF with the phage-displayed clone 37, as told by the legend and paragraph 367; the sheet draws sequences only, no signals
[11] = molecular target: T4, human VEGF; test: cell-based or functional assay; remark: listed apart in the source

B1: phage-displayed gD-tagged wild-type chagasin fused to phage coat protein p3 (other)
chain: MADPNRFRGKDLGSLEMSHKVTKAHNGATLTVAVGELVEIQLPSNPTTGFAWYFEGGTKESPNESMFTVENKYFPPDSKLLGAGGTEHFHVTVKAAGTHAVNLTYMRPWTGPSHDSERFTVYLKANGGSGGSGGS
notes: also called chagasin wild-type (wt); p3-fusion display; not shown: phage coat protein g3 (p3)
[1]
  EC50 (read off the curve): ~0.01 OD 268 nM
[2]
  EC50 (read off the curve): ~0.04 OD 268 nM
[3]
  binding result: no binding (tested: 0.5 OD 268 nm)

B2: phage-displayed gD-tagged wild-type chagasin fused to phage coat protein p8 (other)
chain: MADPNRFRGKDLGSLEMSHKVTKAHNGATLTVAVGELVEIQLPSNPTTGFAWYFEGGTKESPNESMFTVENKYFPPDSKLLGAGGTEHFHVTVKAAGTHAVNLTYMRPWTGPSHDSERFTVYLKANGGSGGSGGS
notes: also called chagasin wild-type (wt); p8-fusion display; not shown: phage coat protein g8 (p8)
[1]
  EC50 (read off the curve): ~0.02 OD 268 nM
[2]
  EC50 (read off the curve): ~0.04 OD 268 nM
[3]
  binding result: no binding (tested: 0.5 OD 268 nm)

B3: chagasin LRP6 variant P (designed binder)
chain: MSHKVTKAHNGATLTVAVGELVEIQLPSNPSCGFAWYFEGGTKESPNESMFTVENKYFPDSNEIWYCGAGGTEHFHVTVKAAGTHAVNLTYMSPYYGPTKVEERFTVYLKANSAWSHPQFEK
[4]
  Kd: 0.15 µM

B4: chagasin LRP6 variant S (designed binder)
chain: MSHKVTKAHNGATLTVAVGELVEIQLPSNPADGFAWYFEGGTKESPNESMFTVENKYFPSNYTKHGAGGTEHFHVTVKAAGTHAVNLTYMPREKGSSLVMERFTVYLKANSAWSHPQFEK
[4]
  Kd: 0.07 µM

B5: chagasin LRP6 variant H15 (designed binder)
chain: MSHKVTKAHNGATLTVAVGELVEIQLPSNPTTGFAWYFEGGTKESPNESMFTVENKYFPSNKIKGIPGFGAGGTEHFHVTVKAAGTHAVNLTYMRPSTGPSDDSERFTVYLKAN
notes: also called clone H15
[5]
  IC50, inhibition of Wnt1 signaling (luciferase reporter, HEK293S cells transfected by WNT1): 0.026 µM
[6]
  Kd: 0.00025 µM

B6: chagasin LRP6 variant S11 (designed binder)
chain: MSHKVTKAHNGATLTVAVGELVEIQLPSNVDGFAWYFEGGTKESPNESMFTVENKYFPSNSTKRGAGGTEHFHVTVKAAGTHAVNLTYMPRVKGAYLVMERFTVYLKAN
notes: also called clone S11
[5]
  IC50, inhibition of Wnt1 signaling (luciferase reporter, HEK293S cells transfected by WNT1): 0.4 µM
[6]
  Kd: 0.074 µM

B7: chagasin VEGF binder Variant 66-L2-K (designed binder)
chain: MSHKVTKAHNGATLTVAVGELVEIQLPSNYYKDGFAWYFEGGTKESPNESMFTVENKYFPHYYNLGGRYTGAGGTEHFHVTVKAAGTHAVNLTYMGPWLGPSRVLERFTVYLKAN
[7]
  Kd: 0.061 µM

B8: chagasin VEGF binder Variant 66-L4-T (designed binder)
chain: MSHKVTKAHNGATLTVAVGELVEIQLPSNYYYDGFAWYFEGGTKESPNESMFTVENKYFPHYTNLGGRYTGGAGTEHFHVTVKAAGTHAVNLTYMGPWLGPSRVLERFTVYLKAN
[7]
  Kd: 0.051 µM

B9: chagasin VEGF binder Variant 66-L4-Q (designed binder)
chain: MSHKVTKAHNGATLTVAVGELVEIQLPSNYYYDGFAWYFEGGTKESPNESMFTVENKYFPHYQNLGGRYTGAGGTEHFHVTVKAAGTHAVNLTYMGPWLGPSRVLERFTVYLKAN
[7]
  Kd: 0.08 µM

B10: chagasin VEGF binder Variant 66-L4-S (designed binder)
chain: MSHKVTKAHNGATLTVAVGELVEIQLPSNYYYDGFAWYFEGGTKESPNESMFTVENKYFPHYSNLGGRYTGGAGTEHFHVTVKAAGTHAVNLTYMGPWLGPSRVLERFTVYLKAN
[7]
  Kd: 0.05 µM

B11: phage-displayed chagasin VEGF variant 3-65-F5 (designed binder)
chain: MADPNRFRGKDLGSLEMSHKVTKAHNGATLTVAVGELVEIQLPSNYRDSGFAWYFEGGTKESPNESMFTVENKYFPVRAGQANEGAGGTEHFHVTVKAAGTHAVNLTYMSPVLGPRFWLERFTVYLKANGGSGGSGGS
notes: not shown: phage coat protein g3 (p3)
[8]
  EC50 (read off the curve): ~0.004 OD 268 nM

B12: chagasin VEGF variant L4X6-3 (designed binder)
chain: MSHKVTKAHNGATLTVAVGELVEIQLPSNYFNDGFAWYFEGGTKESPNESMFTVENKYFPGSSYWGGAGGTEHFHVTVKAAGTHAVNLTYMAPWAGPSRVLERFTVYLKAN
[9]
  Inhibitory Activity (IC50, nM) against hVEGF in cell-based assays: 710 nM

B13: chagasin VEGF variant E4B-5 (designed binder)
chain: MSHKVTKAHNGATLTVAVGELVEIQLPSNYFYEGFAWYFEGGTKESPNESMFTVENKYFPNGPGLGVYGAGGTEHFHVTVKAAGTHAVNLTYMAPWQGPSRELERFTVYLKAN
[9]
  Inhibitory Activity (IC50, nM) against hVEGF in cell-based assays: 800 nM

B14: dimeric chagasin VEGF variant 37 (designed binder)
chain: MSHKVTKAHNGATLTVAVGELVEIQLPSNYFCDGFAWYFEGGTKESPNESMFTVENKYFPNYPGSGVLGAGGTEHFHVTVKAAGTHAVNLTYMAPWFGPSRVLERFTVYLKAN
notes: also called clone 37
[10]
  binding result: binds

B15: chagasin VEGF variant E4B-10 (designed binder)
chain: MSHKVTKAHNGATLTVAVGELVEIQLPSNYFYDGFAWYFEGGTKESPNESMFTVENKYFPDDPGSGLWGAGGTEHFHVTVKAAGTHAVNLTYMAPWSGPSRYLERFTVYLKAN
[9]
  Inhibitory Activity (IC50, nM) against hVEGF in cell-based assays: 610 nM

B16: chagasin VEGF variant L4X8-9 (designed binder)
chain: MSHKVTKAHNGATLTVAVGELVEIQLPSNYFYDGFAWYFEGGTKESPNESMFTVENKYFPSGSYMSYSGAGGTEHFHVTVKAAGTHAVNLTYMAPWLGPSRDLERFTVYLKAN
[9]
  Inhibitory Activity (IC50, nM) against hVEGF in cell-based assays: 300 nM
[11]
  IC50, inhibition of VEGF-dependent signaling through the KDR receptor on cells: 0.301 µM
  fold improvement of IC50 over the parental chagasin variant 4: 2 fold

B17: chagasin VEGF variant E4B-7 (designed binder)
chain: MSHKVTKAHNGATLTVAVGELVEIQLPSNYYYDGFAWYFEGGTKESPNESMFTVENKYFPNVNGSHAWGAGGTEHFHVTVKAAGTHAVNLTYMAPWSGPSRFLERFTVYLKAN
[9]
  Inhibitory Activity (IC50, nM) against hVEGF in cell-based assays: 550 nM

B18: phage-displayed chagasin VEGF variant 4-66-F6 (designed binder)
chain: MADPNRFRGKDLGSLEMSHKVTKAHNGATLTVAVGELVEIQLPSNYFYDGFAWYFEGGTKESPNESMFTVENKYFPNDPGSRLSGAGGTEHFHVTVKAAGTHAVNLTYMAPWLGPSRVLERFTVYLKANGGSGGSGGS
notes: as for B11
[8]
  EC50 (read off the curve): ~0.007 OD 268 nM

B19: phage-displayed chagasin VEGF variant 1-90-H6 (designed binder)
chain: MADPNRFRGKDLGSLEMSHKVTKAHNGATLTVAVGELVEIQLPSNLQDSGFAWYFEGGTKESPNESMFTVENKYFPSGTTGKSNGAGGTEHFHVTVKAAGTHAVNLTYMFKSRGLMVPLERFTVYLKANGGSGGSGGS
notes: as for B11
[8]
  EC50 (read off the curve): ~0.006 OD 268 nM

B20: phage-displayed chagasin VEGF variant 2-40-D4 (designed binder)
chain: MADPNRFRGKDLGSLEMSHKVTKAHNGATLTVAVGELVEIQLPSNLQNAGFAWYFEGGTKESPNESMFTVENKYFPLSLYASETGAGGTEHFHVTVKAAGTHAVNLTYMNPNWGPDYWIERFTVYLKANGGSGGSGGS
notes: as for B11
[8]
  EC50 (read off the curve): ~0.003 OD 268 nM

B21: chagasin LRP6 variant H (designed binder)
chain: MSHKVTKAHNGATLTVAVGELVEIQLPSNPTTGFAWYFEGGTKESPNESMFTVENKYFPYNNIRGLPGFGAGGTEHFHVTVKAAGTHAVNLTYMRPWTGPSHDSERFTVYLKANSAWSHPQFEK
[4]
  Kd: 0.006 µM

B22: phage-displayed chagasin VEGF variant 5-44-D8 (designed binder)
chain: MADPNRFRGKDLGSLEMSHKVTKAHNGATLTVAVGELVEIQLPSNLRSMGFAWYFEGGTKESPNESMFTVENKYFPAGPSAVPLGAGGTEHFHVTVKAAGTHAVNLTYMAPWRGPANVIERFTVYLKANGGSGGSGGS
notes: as for B11
[8]
  EC50 (read off the curve): ~0.003 OD 268 nM
